Key:
Test in all cases: purified protein, by the assay type
Settings in all cases: other: Wild-type RmlA, 10 mM glucose-1-phosphate, 0.05-25 μM enzyme, [NTP] + 5 mM MgCl2, 100 mM Tris-HCl pH 8.0, 37° C.
[1] = system: Nc1nc2c(ncn2[C@@H]2O[C@H](COP(=O)(O)OP(=O)(O)OP(=O)(O)O)[C@@H](O)[C@H]2O)c(=O)[nH]1
Method: (§1) In a typical reaction, sugar-1-phosphate (10 mM final) and enzyme (0.01-50 μM) were mixed with NTP (0.01-40 mM) in the presence of MgCl2 ([NTP]+5 mM) and 10 U/mL inorganic pyrophosphatase (Sigma, St. Louis, Mo., USA) in 100 mM Tris HCl, pH 8.0 (20 μL final volume). Typical reactions were analyzed after 10 min at 37° C. and reaction times were extended for some slow reacting sugar/NTP combinations. Reactions were stopped by the addition of 80 μL prewarmed HPLC buffer and heat inactivation (95° C., 5 min). The amount of enzyme used and the incubation time was adjusted so that the reactions never proceeded to more than 10% turnover for kinetics, or 30% for activity assays.
(§2) Kinetic Measurements—Pseudo first order kinetics were obtained by fixing glucose-1-phosphate at a saturating concentration of 10 mM (Barton et al. (2001) Nat Struct Biol 8, 545-551), and titrating NTPs. At least eight different concentrations in the range of ¼×KM to 4×KM (0.09-20 mM for dTTP, 0.2-40 mM for others) were assayed in triplicate. Reaction rates were confirmed to be linear over twice the incubation time. Activities were corrected for time and enzyme concentrations, and the kinetic curves were fit to the Michaelis-Menton equation using SigmaPlot with the Enzyme Kinetics module (SPSS, Chicago, Ill., USA).

[2] = system: Nc1nc2c(ncn2[C@H]2C[C@H](O)[C@@H](COP(=O)(O)OP(=O)(O)OP(=O)(O)O)O2)c(=O)[nH]1
Method: as §1, §2

[3] = system: Nc1ccn([C@@H]2O[C@H](COP(=O)(O)OP(=O)(O)OP(=O)(O)O)[C@@H](O)[C@H]2O)c(=O)n1
Method: as §1, §2

[4] = system: O=c1ccn([C@@H]2O[C@H](COP(=O)(O)OP(=O)(O)OP(=O)(O)O)[C@@H](O)[C@H]2O)c(=O)[nH]1
Method: as §1, §2

[5] = system: Nc1ccn([C@H]2C[C@H](O)[C@@H](COP(=O)(O)OP(=O)(O)OP(=O)(O)O)O2)c(=O)n1
Method: as §1, §2

[6] = system: Nc1ncnc2c1ncn2[C@H]1C[C@H](O)[C@@H](COP(=O)(O)OP(=O)(O)OP(=O)(O)O)O1
Method: as §1, §2

wt RmlA (glucose-1-phosphate thymidylyltransferase) (Salmonella enterica subsp. enterica serovar Typhimurium str. LT2)
Km [1]: 8.5 ± 0.6 mM | kcat [1]: 0.14 ± 0.0033 s⁻¹ | Km [2]: 3.7 ± 0.5 mM | kcat [2]: 2.12 ± 0.083 s⁻¹ | Km [3]: 13.7 ± 1.1 mM | kcat [3]: 0.0983 ± 0.0033 s⁻¹ | Km [4]: 4.6 ± 0.7 mM | kcat [4]: 41 ± 2.17 s⁻¹ | Km [5]: 10.5 ± 1.1 mM | kcat [5]: 1.22 ± 0.05 s⁻¹ | Km [6]: 7.8 ± 0.9 mM | kcat [6]: 1.88 ± 0.083 s⁻¹
